Biological target: T1, ERp57蛋白 (蛋白二硫化物异构酶A3, purified recombinant full-length protein)
T1 chain: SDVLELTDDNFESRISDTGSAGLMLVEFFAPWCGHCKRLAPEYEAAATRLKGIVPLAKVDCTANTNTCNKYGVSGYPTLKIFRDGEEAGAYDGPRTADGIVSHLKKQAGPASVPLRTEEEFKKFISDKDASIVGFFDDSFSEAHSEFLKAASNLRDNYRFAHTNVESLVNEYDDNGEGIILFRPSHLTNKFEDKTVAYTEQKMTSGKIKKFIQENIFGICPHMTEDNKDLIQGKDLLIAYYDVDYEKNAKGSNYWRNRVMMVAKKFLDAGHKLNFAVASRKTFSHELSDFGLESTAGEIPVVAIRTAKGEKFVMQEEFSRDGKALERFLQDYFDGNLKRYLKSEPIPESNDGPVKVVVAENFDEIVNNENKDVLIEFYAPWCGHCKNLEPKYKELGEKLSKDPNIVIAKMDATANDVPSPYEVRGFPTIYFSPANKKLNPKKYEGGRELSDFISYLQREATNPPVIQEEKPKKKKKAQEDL
Assay: SPR (Biacore), antigen protein immobilised on chip, nanobody as analyte

B1: NbA11纳米抗体 (VHH)
VHH: AVQLVESGGGLVQAGGSLRLSCAASGRAFSRYAVGWFRQTPGKEREFVAAISYHGGYTAYADSVKGRFTISRDSTSNTVHLQMNSLKPEDTAVYYCNTDARALYDYWGQGTQVTVSS
notes: Alpaca-derived nanobody from a naive phage display library; Expressed in E. coli from PET-14B with an HA tag and purified on a Ni column
  Kd: 419 nM

Source: patent CN114106188A (SHENZHEN PEOPLE HOSPITAL, dated 2022)
